Measurements reported in the RNAGym collection of RNA variant scans (doi:10.1073/pnas.2313332121).

B1: TPR t1 (parent)
chain: GACCAAUCUGCCCUCAGAGCUCGAGAACAUCUUCGGAUGCAGAGGAGGCAGGCUUCGGUGGCGCGAUAGCGCCAACGUCCUCAACCUCCAAUGCAUCCCACCACAUGAUGAUGCCUGAAGAGCCUUGGUUUUUUG

Variants of: B1
Assay: polymerase ribozyme fitness, log enrichment relative to wild type (log ratio); higher = more active; in vitro selection for triplet polymerase activity
Outline: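 The heterodimeric triplet polymerase ribozyme's subunits were each mutagenized into PCR-built libraries and transcribed. Every library was selected once, in triplicate, by annealing with a biotinylated primer, the partner subunit and triplets, incubating frozen at −7 °C, gel-excising extended constructs, capturing on streptavidin beads and running RT-PCR. Input and output libraries were Illumina-sequenced, with genotypes kept only at ≥10 input reads and ≥1 read per output. Fitness, from inverse-variance-weighted replicate averages, is the base-2 logarithm of genotype enrichment over wild-type enrichment.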

Variant | polymerase ribozyme fitness (log ratio)
GACCAAUCUGCCCUCAGAGCUCGAGAACAUCUUCGGAUUCAGAGGAGGCAGGCAUCGGUGGCGCGAUAGCGCCAACGUCCUCAACCUCCAAUGCAUCCCACCACAUGAUGAUGCCUGAAGAGCCUUGGUUUUUUG [G39U U54A] | -1.76
GACCAAUCUGCCCUCAGAGCUCGAGAACAUCUUCGGAUGCAGAGGAGGCAGGCUUCGGUGGCGCGAUAGCGCCAACGUCCUCAAGCUCCAAUGCAUCCCACCACAUGAUGAUGGCUGAAGAGCCUUGGUUUUUUG [C85G C114G] | -3.82
GACCAAUCUGCCCUCAGAGCUCGAGAACAUCUUCGGAUGCAGAGGAGGCAGGGUUCGGUGGCGCGAUAGCGCCAACGCCCCCAACCUCCAAUGCAUCCCACCACAAGAUGAUGCCUGAAGAGCCUUGGUUUUUUG [C53G U78C U81C U106A] | -3.38
GACCAAUCUGCCCUCAGAGCUCGAGAACAUCUUCGGAUGCAGAGGAGGCAGGCUUCGGUGGCGCGAUAGCGCCAACAUUCUCAACCUCCAAUGCAUCCCACCACAUGAUGAUGCCUGAAUAGACUUGGUUUUUUG [G77A C79U G120U C123A] | 0.335
GACCAAUCUGCCCUCAGAGCUCGAGAACAUCUUCGGAUGCAGAGGAAGCAGGCUUCGGUGGCGCGAUAGCGUCAACGACCUCAACCUACAAUGCAUCCCACCACAUGAUGAUGCCUGAUGAGCCUUGGUUUCUUG [G47A C72U U78A C88A A119U U132C] | -1.87
GACCAAUCUGCCCUCAGAGCUCGAGAACAUCUUCGGAUGCAGAGGAGGAAGGCUUCGGUGGCGCGAUAGCGCCAACGUCCUCAACCUCCAUUGCGUCCCCCCACAUGAUGAUGCCUGAAGAGCCUUGGUUUUUUG [C49A A91U A95G A100C] | -6.08
GACCAAUCUGCCCUCAGAGCUCGAGAACAUCUUCGGAUGCAGAGGAGGCAGGCUUCGGUGUCGCGAUAGCGCCAACGUCCUCAACCUCCAAUGCAUCCCACCACAUGAUGAUGCCUGAAGAGCCUUGGUUUUAUG [G61U U133A] | -0.172
GACCAAUCUGCCCUCAGAGCUCGAGAACAUCUUCGGAUGCAGAGGAGGCAGGGUUCGGUGGCGCGAUAGCGCCAACGUACUCAACCUCCAAUGCAUCCCACCACAUGAUGAUGCCUGAACAGCCUUGGUUUUAUG [C53G C79A G120C U133A] | -4.39
GACGAAUCUGCCCUCAGAGCUCGAGAACAUCUUCGGAUGCUGAGGCGGCAGGCUUCGGUGGCGCGAUAGCGCCAACGUCCUCAACCGCCAUUGCAUCCCACCACAUGAUGAUGCAUGAAGAGCCUUGGUUUUUUU [C4G A41U A46C U87G A91U C115A G135U] | -4.36
GACCAAUCUGCCGUCAGAGCUCGAGAAUAUCUUCGGAUGCAGAGGAGGCAGGCUUCGGUGGCGCGAUAGCGCCAACGUCCUCAACCUCCAAUGCAUCCCACCACAUGAUGAUGCCUGAAGAGCCUUGGUUUUUUG [C13G C28U] | -3.35
GACCAAUCUGCCCUCAGUGCUAGAGAACAUCUUCGGAUGCAGAGGAGGCAGGCUUCGGUGGCGCGAUAGCGCCAACGUCCUCAACCUCCAAUGCAUCCCACCACAUGAUGAUACCUGAAGAGCCUUGGUUUUUUG [A18U C22A G113A] | -3.79
GACCAAUCUGGCCUCAGAGCUCGAGAACAUCUUCGGAUGGAUAGGAGGCAGGCUUCGGUGGCGCGAUAGCGCGAACGUCCUCAACCACCAAUGCAUCCCACCACAUGAUGAUGCCUGAAGAGCCUUGGUUUUUUG [C11G C40G G42U C73G U87A] | -4.66
GACCAAUCUGCCCUCAGAGCUCGAGAACAUCUUCGGAUGCAGAGGAGGCAGGCUUCGGUCGCGCGAUAGCGCCAACGUCCUCAACAUCCAAUGCAUCCCACCACAUGAUGAUGCCUCAAGAGUCUUGGUUUUUUG [G60C C86A G117C C123U] | -6.38
GAACAAUCUGCCCUCAGAGCUCGAGAACAUCUUCGGAUGCAGAGGAGGCAGGCUUCGGGGGCGCGAUAGCGCCAACGACCUCAACCUCAAAUGCAUCCCACCACAUGAUGAUGCCUGAAUAGCCUUGGUUUUUUG [C3A U59G U78A C89A G120U] | -3.26
GACCAAUCUGCCCUCAGAGCUCGAGAACAUCUUCGGAUGCAGAGGCGGCAGGCAUCGGUGGCGCGAUAGCGCCAACGUCCUCAACCUCCAAUGCAUCCCACCACAUGAUGAUGCCUGAAUAGCCUUGGUUUUUUG [A46C U54A G120U] | -0.501
GACCAAUCUGCCCUCAGAGCUCGAGAACAUCUUCGGAUGUAGAGGAGGCAGGCUUCGGUGGCGCGAUAGCGCCAACGUCCUCAACCUCCAAUGCAUCCCACCACAUGAUUAUGCCUGAAGAGCCUUGGUUUUUUC [C40U G110U G135C] | -2.95
GACCAAUCUGCCCUCAGAGCUCGAGAACAUCUUCGGAUGCAGAGGAGGCAGGCUUAGGUGGCGCGAUGGCGCCAACGUCCUCAACCUCCAAUGCAUCCCACCACAUGAUGAUGCCUGAAGAGCCUUGGUUUUUUG [C56A A68G] | -2.75
GACCAAUCUGCCCUCAGAGCUCGAGAACAUCUUCGGAUGCAGAGGAGACAGGCUUCGGUGGCACGAUAGCGCCAGCGUCCUCAACCUCCAAUGCAUCCCACCACAUGAUGAUGCCUGAAGAGCCUUGGUUUUUUG [G48A G63A A75G] | -1.21
GACCAAUCUGCCCUCAGAGCUCGAGAACAUCUUCGGAUGCAGAGGAGGCAGGCUUCGGUGGCGCGAUAGCGCCAACGUCCUCAACCUCCAAUGCAUCCCACCACAUGAUAAUGCCUGAAUAGCCUUGGUUUUUUG [G110A G120U] | -1.91
GACCAAUCUGCGCUCAGAGCUCGAGAACAUCUUCGGAUGCAGAGGAGGCAGGCUUCGGUGACGCGAUAGCGCCAACGUCCUCAACCUCCAAUGCAUCCCACCACAUGAUGAUGCCUGAAGAGCCUUGUUUUUUUG [C12G G61A G128U] | -1.84
GACCAAUCUGCCCUCAGAGCUCGAGAACAUCUUUGGAUGCAGAGGAGGCCGGCUUCGGUGGCGCGAUAGGGCCAACGUGCUCAACCUCAAAUGCAUCCCACGACAUGAUGAUGCCUGAAGAGCUUUGGUUUUUUG [C34U A50C C70G C79G C89A C102G C124U] | -6.39
